According to article doi:10.1101/2024.04.30.591854:

Molecular target: RBK21 variable region (residues 148-299) (Plasmodium falciparum (strain Lek174))
Test: SPR

KIR2DL1 as used in the SPR experiments with RBK21, sequence (P43626 22-348): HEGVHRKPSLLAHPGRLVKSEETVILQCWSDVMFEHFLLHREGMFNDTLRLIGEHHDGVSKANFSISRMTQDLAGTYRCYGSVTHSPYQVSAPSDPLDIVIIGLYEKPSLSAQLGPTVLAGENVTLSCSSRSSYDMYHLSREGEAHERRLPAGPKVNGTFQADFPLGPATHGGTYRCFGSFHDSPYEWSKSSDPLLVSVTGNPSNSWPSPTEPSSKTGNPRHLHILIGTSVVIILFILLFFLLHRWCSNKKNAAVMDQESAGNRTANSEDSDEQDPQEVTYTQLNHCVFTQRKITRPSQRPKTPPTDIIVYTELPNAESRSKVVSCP
KIR2DS1 as used in the SPR experiment with RBK21, sequence (Q14954 22-304): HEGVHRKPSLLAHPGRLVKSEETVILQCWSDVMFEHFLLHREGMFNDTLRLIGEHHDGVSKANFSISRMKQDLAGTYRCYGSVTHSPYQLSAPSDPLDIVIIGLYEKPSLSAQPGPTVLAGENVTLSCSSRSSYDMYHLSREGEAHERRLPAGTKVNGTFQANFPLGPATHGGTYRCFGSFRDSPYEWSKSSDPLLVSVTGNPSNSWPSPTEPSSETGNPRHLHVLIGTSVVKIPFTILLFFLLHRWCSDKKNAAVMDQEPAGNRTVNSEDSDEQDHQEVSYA

Substance: KIR2DL1 as used in the SPR experiments with RBK21 (from UniProt P43626 22-348) (receptor)
- Kd: 450 nM

Substance: KIR2DS1 as used in the SPR experiment with RBK21 (from UniProt Q14954 22-304) (receptor)
- Kd: 2000 nM
